Data from doi:10.1101/2022.08.10.503460 (bioRxiv, 2022).

Biological target: Mouse Pcdh15 EC1-2 (mouse, UniProt Q99PJ1 27-259)
Assay: AFM force-clamp spectroscopy

- koff: 0.2 s⁻¹
B1: Mouse Cdh23 EC1-2 (domain or fragment)
chain: QVNRLPFFTNHFFDTYLLISEDTPVGSSVTQLLARDMDNDPLVFGVSGEEASRFFAVEPDTGVVWLRQPLDRETKSEFTVEFSVSDHQGVITRKVNIQVGDVNDNAPTFHNQPYSVRIPENTPVGTPIFIVNATDPDLGAGGSVLYSFQPPSPFFAIDSARGIVTVIQELDYEVTQAYQLTVNATDQDKTRPLSTLANLAIIITD
